Test results from patent publication US20050191293A1 (Bristol-Myers Squibb, published 2005).

Tests used:
[1] = target: T1, human IP-10 (interferon gamma inducible protein 10) (human, UniProt P02778 22-98); assay: cell-based or functional assay
[2] = target: T2, human ITAC (interferon-inducible T cell alpha chemoattractant) (human, UniProt O14625 22-94); assay: SPR (Biacore), antigen on CM5 chip, 25 C
T2 sequence: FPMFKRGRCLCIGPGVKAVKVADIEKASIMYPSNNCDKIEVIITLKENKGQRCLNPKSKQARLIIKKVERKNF
Experimental: (§1) The flow was then stopped and dissociation was monitored for 5 minutes. The association and dissociation curves were fit to a Langmuir binding model using BIAevaluation software (Biacore AB).

[3] = target: T1, human IP-10 (interferon gamma inducible …); assay: ELISA, plate coated with 1 ug/ml antigen
Experimental: (§2) The plates were washed with PBS/Tween and then incubated with a goat-anti-human IgG Fc polyclonal antibody conjugated with horseradish peroxidase (HRP) for 1 hour at room temperature. After washing, the plates were developed with ABTS substrate (Sigma, A-1888, 0.22 mg/ml) and analyzed by spectrophotometer at OD 415-495.

rhesus monkey IP-10 [4] = target: T3, rhesus monkey IP-10 (rhesus monkey, UniProt Q8MIZ1 22-98); assay: ELISA, plate coated with 1 ug/ml antigen
T3 construct: Made by recombinant expression and purified by standard methods; also called Rhesus IP-10; rrmIP-10
T3 sequence: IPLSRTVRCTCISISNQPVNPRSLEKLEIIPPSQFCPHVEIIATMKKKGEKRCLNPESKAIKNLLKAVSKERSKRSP
Experimental: as §2

[5] = target: T4, human MIG (monokine induced by gamma interferon) (human, UniProt Q07325 23-125); assay: ELISA, plate coated with 1 ug/ml antigen
T4 construct: Bought (PeproTech 300-26; R&D Systems for the migration assay)
T4 sequence: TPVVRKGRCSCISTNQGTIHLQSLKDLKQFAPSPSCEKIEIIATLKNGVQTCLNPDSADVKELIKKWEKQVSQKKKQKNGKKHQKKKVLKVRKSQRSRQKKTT
Experimental: as §2

mouse IP-10 [6] = target: T5, mouse IP-10 (mouse, UniProt P17515 22-98); assay: ELISA, plate coated with 1 ug/ml antigen
T5 construct: Bought (PeproTech 250-16)
T5 sequence: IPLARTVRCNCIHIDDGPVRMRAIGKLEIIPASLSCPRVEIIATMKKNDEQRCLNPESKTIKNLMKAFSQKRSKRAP
Experimental: as §2

[7] = target: T1, human IP-10 (interferon gamma inducible …); assay: SPR (Biacore), human IP-10 on CM5 chip, 25 C
Experimental: (§3) Binding was measured by flowing the antibody in HBS EP buffer (provided by Biacore AB) at concentrations from 33-267 nM at a flow rate of 40 μl/min. The antigen-antibody association kinetics was followed for 5 minutes and the dissociation kinetics was followed for 8 minutes. The association and dissociation curves were fit to a 1:1 Langmuir binding model using BIAevaluation software (Biacore AB). Data corresponding to the initial few dozen seconds for association and dissociation phases alone were considered for curve fitting to minimize the effect of avidity. The experiments were performed at both 25° C. and 37° C.

[8] = target: T1, human IP-10 (interferon gamma inducible …); assay: SPR (Biacore), human IP-10 on CM5 chip, 37 C
Experimental: as §3

[9] = target: T1, human IP-10 (interferon gamma inducible …); assay: SPR (Biacore), extension of dissociation curve, 25 C
Experimental: as §3
(§4) The values were determined by extension of the dissociation curves to get to the time required for the 50% reduction of the Y-axis of the dissociation sensogram.

[10] = target: T1, human IP-10 (interferon gamma inducible …); assay: SPR (Biacore), extension of dissociation curve, 37 C
Experimental: as §3, §4

rhesus monkey IP-10 [11] = target: T3, rhesus monkey IP-10; assay: SPR (Biacore), antigen on CM5 chip, antibody 133 nM, 25 C
Experimental: as §1

[12] = target: T4, human MIG (monokine induced by gamma …); assay: as above
Experimental: as §1

[13] = target: T1, human IP-10 (interferon gamma inducible …); assay: inhibition of 0.100 nM 125I-IP-10 binding to CXCR3-expressing 300.19 cells
Experimental: The cells were grown in RPMI media containing 10% FCS and G418 selection. Prior to use, the cells were washed twice with Hank's Balanced Salt Solution (HBSS) at 4° C. and adjusted to 4×10⁷ cells/ml. Glass fiber plates (Millipore MultiScreen®, Cat. #MAFBNOB50) were blocked with 200 μl of a 0.1% polyethyleneimine solution one day prior to the experiment. On the day of the study, the blocking buffer was aspirated by using a Millipore manifold. The plates were washed three times with 200 μl of binding buffer (50 mM HEPES, pH 7.2, 1 mM CaCl₂, 5 mM MgCl₂, 0.5% BSA). […] The plates were incubated on a plate shaker for 60 minutes at room temperature and washed three times with wash buffer (10 mM HEPES, pH 7.2, 0.5 M NaCl, 0.5% BSA) at a volume of 200 μl per wash. The plates were dried, 25 μl of scintillant was added and the plates were counted on a Wallac Microbeta Counter. Data were analyzed using Prism software and a KD was calculated.
Competition assays were run in a similar manner to the experiment described above. […] Lastly, 25 μl of cells at a density of 1×10⁶ cells per well were added and the plates were incubated on a plate shaker for 60 minutes at room temperature, washed and counted as described above. EC₅₀ values were calculated using Prism software. Kᵢ values (in nM) were determined using the formula: […]

[14] = target: T1, human IP-10 (interferon gamma inducible …); assay: cell-based or functional assay; remark: listed apart in the source
rhesus monkey IP-10 [15] = target: T3, rhesus monkey IP-10; assay: cell-based or functional assay
[16] = target: T1, human IP-10 (interferon gamma inducible …); assay: cell-based or functional assay; remark: listed apart in the source
mouse IP-10 [17] = target: T5, mouse IP-10; assay: SPR (Biacore), antigen on CM5 chip, antibody 133 nM, 25 C
Experimental: as §1

T1 sequence (P02778 other isoform, or with tags, fused parts or gaps limits assumed): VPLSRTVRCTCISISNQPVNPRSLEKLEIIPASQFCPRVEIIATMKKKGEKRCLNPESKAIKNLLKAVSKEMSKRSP

Row | Binder | IC50 (nM) for 300.19 Cells: inhibition of IP-10-induced calcium flux in 300.19 cells transfected to express CXCR3 [1] [nM] | IC50 (nM) for HPBL: inhibition of IP-10-induced calcium flux in anti-CD3 activated human PBLs that express CXCR3 [1] [nM] | binding result [2] | EC50 [3] [µg/mL] | EC50 (rhesus monkey IP-10 [4]) [µg/mL] | EC50 [5] [µg/mL] | binding result (mouse IP-10 [6]) | Kd [7] [nM] | koff [7] [s⁻¹] | kon [7] [M⁻¹ s⁻¹] | Kd [8] [nM] | koff [8] [s⁻¹] | kon [8] [M⁻¹ s⁻¹] | Half-life (dissociation of half of the antibody-antigen complex) [9] [h] | Half-life (dissociation of half of the antibody-antigen complex) [10] [h] | Kd (rhesus monkey IP-10 [11]) [nM] | Kd [12] [nM] | Ki [13] [nM] | THP-1 IP-10 IC50: inhibition of migration of CXCR3-expressing 300.19 cells induced by native IP-10 in THP-1 supernatant, MIG blocked by anti-MIG [14] [µg/mL] | rhIP-10 IC50: inhibition of migration of CXCR3-expressing 300.19 cells induced by 100 ng/ml recombinant human IP-10 [14] [µg/mL] | further results
1 | 10A12 human monoclonal antibody (antibody, V domains shown, Human IgG with kappa light chain from a hybridoma of transgenic mice) VH: QVQLVESGGGVVQPGRSLRLSCAASGFTFSNCGMHWVRQAPGKGLEWVALIGFDGINEYYADSVKGRFTISRDNSKNTLYLQMNSLRAEDTAVYYCARDWPEGYYNGMDVWGQGTTVTVSS VL: not shown | 0.18 | 1.25 | no binding (tested: 133 nM) | 0.04 | 0.08 | 0.18 | no binding | 0.53 | 2.02e-05 | 38300 | 0.34 | 3.81e-05 | 111000 | 9.53 | 5.05 | 0.71 | 161 | 0.09 | – | – | –
2 | 10A12S (10A12 with cysteine 32 of VH CDR1 mutated to serine) (antibody, V domains shown) VH: QVQLVESGGGVVQPGRSLRLSCAASGFTFSNSGMHWVRQAPGKGLEWVALIGFDGINEYYADSVKGRFTISRDNSKNTLYLQMNSLRAEDTAVYYCARDWPEGYYNGMDVWGQGTTVTVSS VL: not shown | 0.08 | 2.31 | no binding (tested: 133 nM) | 0.0049 | 0.0156 | 0.38 | no binding | 0.88 | 3.24e-05 | 36800 | 0.49 | 4.43e-05 | 91000 | 5.94 | 4.34 | 1.21 | 722 | 0.06 | 0.211 | 0.115 | rrmIP-10 IC50: inhibition of migration of CXCR3-expressing 300.19 cells induced by 100 ng/ml recombinant rhesus macaque IP-10 (rhesus monkey IP-10 [15]): 15.1 µg/mL; Expt. 1 IC50: inhibition of MS-CSF induced migration of CXCR3-expressing 300.19 cells, MIG neutralized by anti-MIG [16]: 0.562 µg/mL; Expt. 2 IC50: inhibition of MS-CSF induced migration of CXCR3-expressing 300.19 cells, MIG neutralized by anti-MIG [16]: 0.577 µg/mL
3 | 7C10 human monoclonal antibody (antibody, V domains shown, Human IgG with kappa light chain from a hybridoma of transgenic mice) VH: QVQLVESGGGVVQPGRSLRLSCAASGFTFSNSGMHWVRQAPGKGLEWVAVIDYDGIIQYYADSVKGRFTISRDNSKNTLYLQINSLRAEDTAVYYCATERGTHYYGSGSFDYWGQGTLVTVSS VL: DIQMTQSPSSLSASVGDRVTITCRASQGISSWLAWYQQKPEKAPKSLIYAASSLQSGVPSRFSGSGSGTDFTLTISSLQPEDFATYYCQQYNSYPPTFGGGTKVEIK | 0.77 | 8.15 | no binding (tested: 133 nM) | – | – | – | – | 0.02 | 4e-07 | 17000 | 0.016 | 8e-07 | 52700 | – | – | 4.4 | – | 0.41 | – | – | Kd (mouse IP-10 [17]): 464 nM
4 | 8F6 human monoclonal antibody (antibody, V domains shown, Human IgG with kappa light chain from a hybridoma of transgenic mice) VH: QVQLVDSGGGVVQPGRSLRLSCAASGFTFNTYGMHWVRQAPGKGLEWVAVISYDGIIKHYADSVKGRFTITRDNSKNMVHLQMNSLRAEDTAVYYCARDSSSWYVYFDYWGQGTLVTVSS VL: EIVLTQSPATLSLSPGERATLSCRASQSVSSYVAWYQQKPGQAPRLLIYDASNRATGIPARFSGSGSGTDFTLTISSLEPEDFAIYYCQQRSNSPPWTFGQGTKVEIK | 0.3 | 6.27 | no binding (tested: 133 nM) | 0.09 | 0.031 | – | no binding | 0.81 | 0.00019 | 233000 | 0.78 | 0.00027 | 347000 | 1.01 | 0.71 | 0.81 | – | 0.16 | 0.173 | 0.355 | rrmIP-10 IC50: inhibition of migration of CXCR3-expressing 300.19 cells induced by 100 ng/ml recombinant rhesus macaque IP-10 (rhesus monkey IP-10 [15]): 0.1 µg/mL; binding result [5]: no binding
5 | 1E1 human monoclonal antibody (antibody, V domains shown, Human IgG with kappa light chain from a hybridoma of transgenic mice) VH: QEQLVESGGNVVQPGRSLRLSCAASGFTFSTYGMHWVRQAPGKGLEWVAVIWYDGSDKYYADSVKDRFTVSKDNSKNTLYLQMNSLRAEDTAVYYCARNIAVADVAFDLWGQGTMVTVSS VL: not shown | – | 3.64 | – | – | – | – | – | – | – | – | – | – | – | – | – | – | – | 0.29 | – | – | –
